The source of these data is PMC5701006.

By Kd is commonly meant the equilibrium constant for the complex coming apart. The term koff denotes the first-order rate constant of dissociation. The kon is the rate constant with which the complex forms.

The target in test [1] is H. polygyrus TGF-β mimic (Hp-TGM), recombinant, amine-coupled to the chip (Heligmosomoides polygyrus). Nature of the test: SPR; BIAcore X100; hTGF-β3 or Hp-TGM amine-coupled to a CM5 chip; two-fold dilutions of hTβRI (from 4 µM downwards) injected in HBS-EP at 30 µL/min, room temperature; global fit, simple 1:1 model. (In general: SPR reads the build-up and loss of mass on a sensor chip optically.)

Test [2] has the same target. Nature of the test: SPR; as a1 but with 2 μM hTβRII in the HBS-EP running buffer and in the injected hTβRI samples.
Test [3] has as its target human TGF-β3 on the chip with hTβRII extracellular domain bound (2 μM hTβRII in running buffer and samples) (human) (UniProt P37173). The test is described as above.

B1: human TGF-β type I receptor extracellular domain (receptor)
chain: LQCFCHLCTKDNFTCVTDGLCFVSVTETTDKVIHNSMCIAEIDLIPRDRPFVCAPSSKTGSVTTTYCCNQDHCNKIELPTTVKSSPGLGPVEL
For B1, the equilibrium dissociation constant (Kd) in test [1] came out at 351 nM; in test [2], 348 nM; in test [3], 367 nM. Further, the koff in test [1] is 0.00386 s⁻¹; in test [2], 0.00315 s⁻¹; in test [3], 0.00179 s⁻¹. The values for the kon in test [1], in test [2] and in test [3] were 11000 M⁻¹ s⁻¹, 9070 M⁻¹ s⁻¹ and 4890 M⁻¹ s⁻¹, respectively.
